The values below come from US11534528B2, “Sterilization of self-assembling peptides by irradiation” (3-D Matrix, Ltd., priority 2020, dated 2022).

Where “and” joins values, the source holds several entries; their conditions need not be identical. Equal values may be shown once.

Data set [1] is described as follows: pH of peptide solution before and after irradiation. It is filed as physicochemical. As for the experimental part:
(§1) Samples were irradiated with gamma rays at 23, 25, 28 and 40 kGy with VPTrad Gammacell 220® High Dose Rate Co-60 Irradiator. In some embodiments, the run dose rate and duration time for 40 kGy irradiation were 6.30 kGy/hr and 6 hours 20 minutes 58 seconds, respectively. In other embodiments, the run dose rate and duration time for 28 kGy irradiation were 4.40 kGy/hr and 6 hours 22 minutes 31 seconds, respectively. In other embodiments, the run dose rate and duration time for 25 kGy irradiation were 6.58 kGy/hr and 3 hours 47 minutes 42 seconds, respectively. In other embodiments, the run dose rate and duration time for 23 kGy irradiation were 6.58 kGy/hr and 3 hours 29 minutes 29 seconds, respectively.
(§2) In other embodiments, samples were irradiated with X-ray at 25 kGy and 40 kGy with a Mevex accelerator (10 MeV, 20 kW).
(§3) In other embodiments, samples were irradiated with e-beam at 25 and 40 kGy with a Mevex accelerator (10 MeV, 20 kW).
(§4) Methods and test results: The appearance of PuraStat® was observed after each test. The pH of PuraStat® was tested using an Accumet AB15 pH meter (Fisher Scientific). HPLC tests were performed to evaluate the major peptide content after irradiation tests. Agilent HPLC 1100 (Agilent Technologies) was used for this study. Column temperature was kept at 25° C.

A short description of data set [2]: Appearance of peptide solution before and after irradiation. It is filed as physicochemical. As to conditions: for appearance and pH, summary: after gamma, X-ray and e-beam irradiation at around 25~40 kGy. The procedure:
as §1, §2, §3, §4

The conditions of data set [3]: RADA16 in solution; cited from earlier work.
A short description of data set [4]: Mass spectrometry test for degradation of the peptides. It is filed as physicochemical. The procedure: (§5) Mass spectrometry tests were carried out to investigate the degradation of the peptides after irradiation sterilization. An Agilent LC/MSD ion trap mass spectrometer was used for this study. The sample solutions were prepared as described above for the HPLC samples. Each sample was injected at 9 μL/min with a syringe pump. Each mass spectrum was recorded for 1 minute.
as §5, with “sterilization.” for “sterilization. An”, “Mass” for “Each mass”, “minute. The molecular weight of PuraStat® (Ac-(RADA)4-NH2) (SEQ ID NO:1) is 1712, which matches its calculated molecular weight from the major three peaks at m/3=572, m/2=857, and m=1713 in all the spectra of control and irradiated PuraStat® samples.” for “minute.”

The nature of data set [5]: HPLC test for major peptide content. It is filed as physicochemical. As to conditions: N = 3, mean ± SD. The procedure: HPLC tests were performed to evaluate the major peptide content after irradiation tests. An Agilent HPLC 1100 (Agilent Technologies) was used for this study. The column temperature was kept at 25° C.
For RADA16 (SEQ ID NO:1) samples, solvent A was water with 0.1% TFA and solvent B was 80% acetonitrile with 0.1% TFA. Gradient of solvent B was controlled from 10% to 40% in 20 min and 40% for another 5 min at 25° C. Agilent Zorbax 300SB-C18 column (4.6 mm×250 mm, 5 μm, 300 Å) was used for this test. PuraStat® (RADA16 (SEQ ID NO:1) 2.5%) (40 mg) was mixed with 10 μL of DH2O and the mixture was vortexed. The mixture was further mixed with 500 μL of formic acid and vortexed. This mixture was then mixed with DH2O (4,450 μL) and vortexed. 20 μL samples were injected using an Agilent autosampler.
For IEIK13 (SEQ ID NO:3) samples, solvent A was water with 0.1% TFA and solvent B was 90% Acetonitrile with 0.1% TFA. The gradient of solvent B was controlled from 20% to 43% in 8 min, from 43% to 70% between 8 and 9.5 min, and from 70% to 95% between 9.5 and 30 min, and 95% for another 5 min at 25° C. An Agilent PLRP-S column (4.6 mm×250 mm, 8 μm, 300 Å) was used for this test. A 1.3% solution of IEIK13 (SEQ ID NO:3) was diluted with water with 0.1% TFA to 0.075% and the mixture was vortexed. 35 μL samples were injected using an Agilent autosampler.
For QLEL12 (SEQ ID NO:4) samples, solvent A was water and solvent B was 80% acetonitrile. The gradient of solvent B was controlled from 20% to 80% in 15 min and 80% for another 7 min at 25° C. An Agilent PLRP-S column (4.6 mm×250 mm, 8 μm, 300 Å) was used for this test. 0.15% w/v of QLEL12 (SEQ ID NO:4) solution was diluted to 0.01% with DH2O and vortexed. 50 μL samples were injected using an Agilent autosampler.
as §4
Solvent A was water with 0.1% TFA and solvent B was 80% Acetonitrile with 0.1% TFA. Gradient of solvent B was controlled from 10% to 40% in 20 min and 40% for another 5 min at 25° C. Agilent Zorbax 300SB-C18 column (4.6 mm×250 mm, 5 μm, 300 Å) was used for this test. PuraStat® (RADA16 (SEQ ID NO:1) 2.5%) (40 mg) were mixed with 10 μL of DH2O and 500 μL of formic acid and vortexed. And the mixture was mixed with DH2O (4,450 μL) and vortexed. 20 μL of samples were injected using an Agilent autosampler.
Agilent HPLC 1100 (Agilent Technologies) was used for this study. Column temperature was kept at 25° C. Agilent Zorbax 300SB-C18 column (4.6 mm×250 mm, […], 300 Å) was used for this test. Solvent A was water with 0.1% TFA and solvent B was 80% Acetonitrile with 0.1% TFA. Gradient of solvent B was controlled from 10% to 40% in 20 min and 40% for another 5 min at 25° C. PuraStat® (40 mg) was mixed with 10 μL of DH2O and 500 μL of formic acid and vortexed, and the mixture was mixed with DH2O (4,450 μL) and vortexed. […] of samples were injected using an Agilent autosampler.

[6] abbreviates: after gamma, X-ray or e-beam irradiation.

On to “Ac-KLDLKLDLKLDL-NH2 [KLD12, self-assembling peptide]”, for which the pH in data set [1] (X-ray irradiation at 25 kGy) turned out to be 2.2; in data set [1] (X-ray irradiation at 40 kGy) it was 2.2; in data set [1] (control, not irradiated), 2.2; in data set [1] (e-beam irradiation at 25 kGy), 2.2; in data set [1] (e-beam irradiation at 40 kGy) it was 2.2; in data set [1] (gamma irradiation at 40 kGy), 2.2. Further, the Appearance result was “Clear and viscous” in data set [2] (X-ray irradiation at 25 kGy); “Clear and viscous” in data set [2] (X-ray irradiation at 40 kGy); “Clear and viscous” in data set [2] (control, not irradiated); “Clear and viscous” in data set [2] (e-beam irradiation at 25 kGy); “Clear and viscous” in data set [2] (e-beam irradiation at 40 kGy); “Clear and viscous” in data set [2] (gamma irradiation at 40 kGy). Further, the “appearance and pH, summary” value in data set [2] is recorded as “remained unchanged”.
For Ac-RADARADARADARADA-NH2 [RADA16], in data set [3], the degradation on autoclaving result was “complete thermal degradation”. Also, the “degradation by mass spectrometry analysis” value in data set [4] (setting [6]) was “not degraded”; in data set [4] (autoclave treatment (121° C. for 20 min)), “completely degraded”. Further, in data set [2], the “appearance and pH, summary” value is “remained unchanged”. Moreover, the “Major peptide content (%)” value in data set [5] (X-ray irradiation at 25 kGy) amounted to 73.8%; in data set [5] (X-ray irradiation at 40 kGy), 71.9%; in data set [5] (control, not irradiated), 78.3%; in data set [5] (e-beam irradiation at 25 kGy), 76.0%; in data set [5] (e-beam irradiation at 40 kGy), 70.0%; in data set [5] (gamma irradiation at 23 kGy) it was 75.5%. Also, the figures for the “Major peptide content (%)” value in data set [5] (gamma irradiation at 25 kGy), in data set [5] (gamma irradiation at 28 kGy) and in data set [5] (gamma irradiation at 40 kGy) were 74.6%, 68.5% and 69.7%, respectively.
For “Ac-QLELQLELQLEL-NH2 [QLEL12, self-assembling peptide, degraded by irradiation]”, the pH in data set [1] (X-ray irradiation at 25 kGy) is listed as 6.3; in data set [1] (X-ray irradiation at 40 kGy), 5.9; in data set [1] (control, not irradiated) it was 7.0; in data set [1] (e-beam irradiation at 25 kGy) it was 6.6; in data set [1] (e-beam irradiation at 40 kGy) it was 6.5; in data set [1] (gamma irradiation at 23 kGy) it was 6.7. Further, the pH is reported as 6.5 in data set [1] (gamma irradiation at 25 kGy) and 5.9 in data set [1] (gamma irradiation at 40 kGy). For the same substance, in data set [4] (setting [6]), the “degradation by mass spectrometry analysis” value is “significantly degraded”. Moreover, the Appearance result in data set [2] (X-ray irradiation at 25 kGy) is “Clear and watery”; in data set [2] (X-ray irradiation at 40 kGy) it was “Clear and watery”; in data set [2] (control, not irradiated) it was “Clear and viscous”; in data set [2] (e-beam irradiation at 25 kGy), “Clear and watery”; in data set [2] (e-beam irradiation at 40 kGy), “Clear and watery”; in data set [2] (gamma irradiation at 23 kGy) it was “Clear and watery”. For the same substance, the Appearance entry in data set [2] (gamma irradiation at 25 kGy) was “Clear and watery”; in data set [2] (gamma irradiation at 40 kGy) it was “Clear and watery”. Besides, the “Major peptide content (%)” value was 57.0% and 57.0 ± 4.9 % in data set [5] (X-ray irradiation at 25 kGy); 47.3% and 47.3 ± 1.3 % in data set [5] (X-ray irradiation at 40 kGy); 90.5% and 90.5 ± 1.3% in data set [5] (control, not irradiated); 51.9% and 51.9 ± 7.3 % in data set [5] (e-beam irradiation at 25 kGy); 55.6% and 55.6 ± 3.0 % in data set [5] (e-beam irradiation at 40 kGy); 40.7% and 40.7 ± 3.1 % in data set [5] (gamma irradiation at 40 kGy).
Take Ac-IEIKIEIKIEIKI-NH2 [IEIK13]: the pH in data set [1] (X-ray irradiation at 25 kGy) is reported as 3.0; in data set [1] (X-ray irradiation at 40 kGy), 3.0; in data set [1] (control, not irradiated) it was 3.0; in data set [1] (e-beam irradiation at 25 kGy), 3.0; in data set [1] (e-beam irradiation at 40 kGy), 3.0; in data set [1] (gamma irradiation at 28 kGy) it was 3.0. In data set [1] (gamma irradiation at 40 kGy), this substance came in with a pH of 3.0. Further, the “degradation by mass spectrometry analysis” value in data set [4] (setting [6]) is “only insubstantially degraded”. The Appearance entry in data set [2] (X-ray irradiation at 25 kGy) was “Clear and viscous”; in data set [2] (X-ray irradiation at 40 kGy), “Clear and viscous”; in data set [2] (control, not irradiated), “Clear and viscous”; in data set [2] (e-beam irradiation at 25 kGy), “Clear and viscous”; in data set [2] (e-beam irradiation at 40 kGy) it was “Clear and viscous”; in data set [2] (gamma irradiation at 28 kGy), “Clear and viscous”. Further, in data set [2] (gamma irradiation at 40 kGy), the Appearance result is “Clear and viscous”. Further, the “appearance and pH, summary” value in data set [2] is listed as “remained unchanged”. Further, the “Major peptide content (%)” value is 99.8% and 99.8 ± 0.1% in data set [5] (X-ray irradiation at 25 kGy); 99.9% and 99.9 ± 0.1% in data set [5] (X-ray irradiation at 40 kGy); 99.6% and 99.6 ± 0.0% in data set [5] (control, not irradiated); 99.6% and 99.6 ± 0.2% in data set [5] (e-beam irradiation at 25 kGy); 99.8% and 99.8 ± 0.1% in data set [5] (e-beam irradiation at 40 kGy); 99.8% and 99.8 ± 0.2% in data set [5] (gamma irradiation at 40 kGy).
